The values that follow come from article PMC4742562, “Structure and Interactions of a Dimeric Variant of sHIP, a Novel Virulence Determinant of Streptococcus pyogenes” (Frontiers in Microbiology, 2016).

Entries after “also recorded” stand apart in the source; their conditions may differ.

In data set [1] the test system is histidine-rich glycoprotein (HRG). Description: Antimicrobial assay: inhibition of the bactericidal activity of HRG against S. pyogenes AP1. The conditions noted are these: recombinant His-tagged HRG 0.45 μM, S. pyogenes AP1 2 × 10^6 cfu/ml, 10 mM MES, pH 5.5, 5 mM glucose, various sHIP concentrations, 40 min, 37°C, cfu counts, at least three repeats, mean ± SD (values only in Figure 3). The data set is classed as cell-based. The protocol: The S. pyogenes strain AP1 (40/58), was from the World Health Organization Collaborating Centre for Reference and Research on Streptococci, Prague, Czech Republic. The bacteria were cultivated in THY (Todd-Hewitt broth (Difco) supplemented with 0.2% yeast extract (Oxoid) at 37°C and 5% CO2 until reaching mid-log phase (OD 620 nm approximately 0.4). The bacterial cells were washed and resuspended in 10 mM Tris-HCl, pH 7.5, containing 5 mM glucose, to a concentration of 2 × 10^9 cfu (colony forming unit)/ml. Subsequently, the bacteria were diluted to a concentration of 2 × 10^6 cfu/ml in 10 mM MES buffer, pH 5.5, containing 5 mM glucose. Fifty microliters of the bacterial solution was incubated with recombinant His-tagged HRG (Creative Biomart) at a concentration of 0.45 μM together with various concentrations of protein sHIPwt or protein sHIPqp for 40 min at 37°C. Serial dilutions of the incubation mixtures were plated on TH agar, plates were incubated over night at 37°C and the number of cfu's were determined.
Experiments were repeated at least three times and mean values ± SD are shown.

Data set [2] has the same test system. Briefly: Interaction of the sHIP mutant with intact HRG and histidine-rich repeats. The data set is classed as binding. The conditions noted are these: stated in abstract; no separate data shown.
Data set [3] in a line: Analytical ultracentrifugation, sedimentation velocity (oligomeric state in solution). In kind it is physicochemical. The conditions noted are these: 20°C, 50000 rpm, Beckman XL-I, 20 mM MES, pH 5.5, SEDFIT c(S). The protocol: Sedimentation velocity experiments were performed at 20°C and 50000 rpm using a Beckman XL-I instrument. Samples containing either sHIPwt or sHIPqp were in 20 mM MES buffer (2-(N-morpholino) ethanesulfonic acid), pH 5.5. The data were analyzed with SEDFIT using a continuous c (S) distribution (Schuck, [2000]). HYDROPRO (Ortega et al., [2011]) was used to calculate the theoretical sedimentation coefficient using the PDB IDs 4MER (sHIPwt) and 4PZ1 (sHIPqp), respectively.
Figure 2 Sedimentation velocity experiments for protein sHIP. The dotted lines indicate the theoretical sedimentation coefficient for a tetramer and a dimer respectively calculated using HYDROPRO and the structural coordinates for protein sHIPwt (PDB ID: 4MER) and protein sHIPqp (PDB ID: 4PZ1). The wild-type sHIPwt is shown in black, and the sHIPqp mutant in red respectively.

For data set [4] the following is noted: ref Rydengård et al., 2007; cited from earlier work.
For the next data set, the system named is sHIP. The conditions noted are these: previous studies; ref Wisniewska et al., 2014; cited from earlier work. From the text: In a recent study, we quantitatively analyzed and compared S. pyogenes proteins in the growth medium of a strain that is virulent to mice (AP1), with a non-virulent strain (SF370).
The next data set relates to S. pyogenes. The conditions noted are these: ref Shannon et al., 2010; cited from earlier work.

B1: sHIPqp (protein)
chain: SMKQDQLIVEKMEQTYEAFSPKLANLIEALDAFKEHYEEYATLRNFYSSDEWFRLANQPWDDIPSGVLSEDLLFDMIGDHNQLAADIADLAPIMAKHM
modifications: left off: His-tag, N-terminal, cleaved
With B1, the “inhibition of the bactericidal activity of HRG” value is “inhibits the bactericidal activity of HRG to the same or even higher extent that wildtype sHIP; also recorded: inhibits the bactericidal activity of HRG more efficiently than protein sHIP wildtype; also recorded: maintain its full inhibitory capacity of HRG in antimicrobial assays” in data set [1] and “inhibits their antibacterial activity to the same or even higher extent as compared to the wild type protein sHIP” in data set [1] (listed as sHIP mutant). Besides, the “interaction with intact HRG and the histidine-rich repeats in HRG” value in data set [2] was “interacts with intact histidine-rich glycoprotein (HRG) and the histidine-rich repeats in HRG”. Also, the entries for the “oligomeric state in solution” value in data set [3] and in data set [3] (listed as sHIP mutant) were “dimers in solution” and “only as dimers in solution”, respectively.

B2: HRG: abundant plasma glycoprotein of approximately 60 kDa; recombinant His-tagged HRG (protein)
chain: VSPTDCSAVEPEAEKALDLINKRRRDGYLFQLLRIADAHLDRVENTTVYYLVLDVQESDCSVLSRKYWNDCEPPDSRRPSEIVIGQCKVIATRHSHESQDLRVIDFNCTTSSVSSALANTKDSPVLIDFFEDTERYRKQANKALEKYKEENDDFASFRVDRIERVARVRGGEGTGYFVDFSVRNCPRHHFPRHPNVFGFCRADLFYDVEALDLESPKNLVINCEVFDPQEHENINGVPPHLGHPFHWGGHERSSTTKPPFKPHGSRDHHHPHKPHEHGPPPPPDERDHSHGPPLPQGPPPLLPMSCSSCQHATFGTNGAQRHSHNNNSSDLHPHKHHSHEQHPHGHHPHAHHPHEHDTHRQHPHGHHPHGHHPHGHHPHGHHPHGHHPHCHDFQDYGPCDPPPHNQGHCCHGHGPPPGHLRRRGPGKGPRPFHCRQIGSVYRLPPLRKGEVLPLPEANFPSFPLPHHKHPLKPDNQPFPQSVSESCPGKFKSGFPQVSMFFTHTFPK
modifications: left off: His-tag, end not stated, kept
notes: abundant plasma glycoprotein of approximately 60 kDa; recombinant His-tagged HRG
Consider B2, for which, in data set [4], the antimicrobial potency entry is “broad antimicrobial potency”. The “affinity for sHIP (in words)” value in the data set with sHIP was “nanomolar to micromolar affinity; also recorded: high affinity”. The “antibacterial activity against S. pyogenes” value with S. pyogenes is “antibacterial activity including activity against S. pyogenes”.
